{"source": "paper PMC2713385", "about": "(Journal of molecular biology, 2009)", "molecules": {"B1": {"name": "bacteriophage P22 tail needle gp26 (natural protein, UniProt P35837 1-233, looked up)", "chain": "MADPSLNNPVVIQATRLDASILPRNVFSKSYLLYVIAQGTDVGAIAGKANEAGQGAYDAQVKNDEQDVELADHEARIKQLRIDVDDHESRITANTKAITALNVRVTTAEGEIASLQTNVSALDGRVTTAENNISALQADYVSKTATTSQSLASPLNVTTSYSVGGKKVLGARQTGWTAATGTANKGVFDADLTFAVSDTYTQSEIQAIANALITERRRTKALEDALRAHGLID"}}, "key": {"[1]": {"biological_target": "phage HS1 gp26-like tail needle (prophage HS1 of E. coli strain HS)", "experiment": "SDS-PAGE"}, "[2]": {"biological_target": "phage HS1 gp26-like tail needle (prophage HS1 of E. coli strain HS)", "experiment": "AUC"}, "[3]": {"biological_target": "bacteriophage HK620 gp26-like tail needle (bacteriophage HK620)", "experiment": "SDS-PAGE"}, "[4]": {"biological_target": "bacteriophage HK620 gp26-like tail needle (bacteriophage HK620)", "experiment": "AUC"}, "[5]": {"biological_target": "bacteriophage Sf6 gp26-like tail needle (bacteriophage Sf6)", "experiment": "SDS-PAGE"}, "[6]": {"biological_target": "bacteriophage Sf6 gp26-like tail needle (bacteriophage Sf6)", "experiment": "AUC"}, "AUC": {"biological_target": "the molecule itself", "experiment": "AUC"}}}
{"molecule": "phage HS1 gp26-like tail needle (natural protein)", "values": [{"measurement": "stoichiometry N", "setting": "[1]", "result": 3}, {"measurement": "stoichiometry N", "setting": "[2]", "result": 3}]}
{"molecule": "bacteriophage HK620 gp26-like tail needle (natural protein)", "values": [{"measurement": "stoichiometry N", "setting": "[3]", "result": 3}, {"measurement": "stoichiometry N", "setting": "[4]", "result": 3}]}
{"molecule": "bacteriophage Sf6 gp26-like tail needle (natural protein)", "values": [{"measurement": "stoichiometry N", "setting": "[5]", "result": 3}, {"measurement": "stoichiometry N", "setting": "[6]", "result": 3}]}
{"molecule": "B1", "values": [{"measurement": "stoichiometry N", "setting": "AUC", "result": 3}]}
